Test results published in article PMC9666535.

Legend:
[1] = biological target: FEN1 D181A•PCNA complex prebound on the nick product (FEN1•PCNA•NP) (human) (UniProt P39748); test: other fluorescence titration; apparent; FeSQ quenching of Cy3 on the DNA: FEN1 D181A (250 nM) prebound to PCNA-loaded nick DNA (Sub#28), Polδ titrated; quadratic fit (Eq. 1); 22 °C, 50 mM HEPES-KOH pH 7.5, 100 mM KCl, 10 mM MgCl2, 1 mM ATP
PCNA WT = PCNA WT (UniProt P12004); test: single-molecule FRET of DNA bending (TIRF); internally labeled double flap DNA on the surface, PCNA pre-loaded by RFC and trapped on it (Sub#12) or absent (Sub#13); Polδ Exo^− 250 nM in solution; 50 ms resolution; 50 mM HEPES-KOH pH 7.5, 100 mM KCl, 10 mM MgCl2; details: other: single-molecule FRET of DNA bending (TIRF)
PCNA (Homo sapiens) = PCNA (Homo sapiens) (UniProt P12004); details: cited from earlier work
Sequence of PCNA (Homo sapiens) (P12004 whole entry): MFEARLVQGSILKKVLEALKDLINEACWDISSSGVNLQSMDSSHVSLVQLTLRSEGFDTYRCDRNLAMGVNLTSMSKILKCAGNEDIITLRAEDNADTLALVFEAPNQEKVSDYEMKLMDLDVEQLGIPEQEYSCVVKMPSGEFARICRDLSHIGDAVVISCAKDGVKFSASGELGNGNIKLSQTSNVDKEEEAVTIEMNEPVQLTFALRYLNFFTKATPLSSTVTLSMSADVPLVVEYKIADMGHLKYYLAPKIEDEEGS

Sequence of FEN1 (P39748 whole entry): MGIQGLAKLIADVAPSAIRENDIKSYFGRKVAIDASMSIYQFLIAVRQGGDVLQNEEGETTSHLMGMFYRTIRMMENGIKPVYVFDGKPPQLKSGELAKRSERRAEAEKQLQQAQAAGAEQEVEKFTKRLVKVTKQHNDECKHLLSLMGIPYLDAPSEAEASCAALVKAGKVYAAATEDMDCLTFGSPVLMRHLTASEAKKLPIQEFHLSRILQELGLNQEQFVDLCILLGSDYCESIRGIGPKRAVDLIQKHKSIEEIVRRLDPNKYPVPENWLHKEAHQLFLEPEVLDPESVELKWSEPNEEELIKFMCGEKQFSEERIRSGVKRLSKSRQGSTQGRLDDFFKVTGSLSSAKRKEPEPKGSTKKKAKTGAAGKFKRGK
Sequence of FEN1 D181A•PCNA complex prebound on the nick product (FEN1•PCNA•NP) (human) (P39748 2-380 D181A, chain 1 of 2): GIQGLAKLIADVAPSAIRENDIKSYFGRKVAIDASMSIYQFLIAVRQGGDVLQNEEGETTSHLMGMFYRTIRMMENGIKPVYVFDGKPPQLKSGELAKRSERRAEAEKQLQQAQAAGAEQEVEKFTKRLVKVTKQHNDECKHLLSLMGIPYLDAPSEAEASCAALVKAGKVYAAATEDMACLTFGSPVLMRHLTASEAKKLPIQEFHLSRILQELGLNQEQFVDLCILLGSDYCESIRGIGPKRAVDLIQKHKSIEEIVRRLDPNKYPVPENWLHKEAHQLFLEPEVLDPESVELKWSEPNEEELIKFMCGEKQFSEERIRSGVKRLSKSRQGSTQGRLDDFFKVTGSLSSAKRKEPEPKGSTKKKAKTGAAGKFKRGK
Sequence of FEN1 D181A•PCNA complex prebound on the nick product (FEN1•PCNA•NP) (human) (P12004 whole entry, chain 2 of 2, further chain): as the sequence (P12004 whole entry) above
Sequence of PCNA WT (P12004 whole entry): as above

Polδ Exo^− (D515V in p125) (from UniProt P28340 1-1107; Q9HCU8 1-107) (complex)
Kd [1]: 4.5 nM

Polδ Exo^− (D515V in p125)
assembly yield of the Polδ•PCNA complex (PCNA WT): the assembly yield was only ~70%

FEN1 (from UniProt P39748)
Kd (PCNA (Homo sapiens)): 70 nM
